Measurements as given in patent publication US20240066131A1 (Protagonist Therapeutics, Inc., priority 2020, published 2024).
Non-standard residues stand in square brackets, D forms with d. Groups on a side chain read outwards from the residue. *: point of attachment. Ala(1H-tetrazol-5-yl) = N[C@@H](Cc1nnn[nH]1)C(=O)O; C18 diacid = O=C(O)CCCCCCCCCCCCCCCCC(=O)*; Dip = N[C@H](C(=O)O)C(c1ccccc1)c1ccccc1; Palmitoyl = CCCCCCCCCCCCCCCC(=O)*; β3hF = N[C@H](CC(=O)O)Cc1ccccc1; His(1-Me) = 1-methylhistidine; Isovaleryl = CC(C)CC(=O)*; AEEA = NCCOCCOCC(=O)O; Ahx = NCCCCCC(=O)O

T1: human ferroportin (SLC40A1) fused in frame with GFP, stably expressed in HEK293 cells (human, UniProt Q9NP59 1-571)
T1 sequence (looked up): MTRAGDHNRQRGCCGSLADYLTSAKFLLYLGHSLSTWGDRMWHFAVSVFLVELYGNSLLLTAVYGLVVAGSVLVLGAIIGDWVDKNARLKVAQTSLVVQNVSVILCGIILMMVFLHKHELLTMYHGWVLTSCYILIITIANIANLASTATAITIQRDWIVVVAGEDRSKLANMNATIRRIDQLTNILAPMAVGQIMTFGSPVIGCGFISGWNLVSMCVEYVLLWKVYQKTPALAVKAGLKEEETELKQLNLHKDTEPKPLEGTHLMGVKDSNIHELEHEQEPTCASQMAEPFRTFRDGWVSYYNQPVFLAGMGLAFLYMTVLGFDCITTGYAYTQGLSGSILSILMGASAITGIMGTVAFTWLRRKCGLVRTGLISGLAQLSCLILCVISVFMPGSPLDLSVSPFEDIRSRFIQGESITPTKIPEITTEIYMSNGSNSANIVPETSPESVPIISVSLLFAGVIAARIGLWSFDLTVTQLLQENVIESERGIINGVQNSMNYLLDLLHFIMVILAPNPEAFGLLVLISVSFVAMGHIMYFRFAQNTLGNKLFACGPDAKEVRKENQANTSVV

B1: Isovaleric Acid-E-A-H-[Dpa]-P-A-I-[(D)Lys]-[bhPhe]-[Lys(Ahx_Palm)]-[(D)Lys]-A-NH2 (peptide)
peptide: Isovaleryl-EAH[Dip]PAI[dK][β3hF]K([Ahx-Palmitoyl])[dK]A-NH2
SMILES: CCCCCCCCCCCCCCCC(=O)NCCCCCC(=O)NCCCC[C@H](NC(=O)C[C@H](Cc1ccccc1)NC(=O)[C@@H](CCCCN)NC(=O)[C@@H](NC(=O)[C@H](C)NC(=O)[C@@H]1CCCN1C(=O)[C@@H](NC(=O)[C@H](Cc1c[nH]cn1)NC(=O)[C@H](C)NC(=O)[C@H](CCC(=O)O)NC(=O)CC(C)C)C(c1ccccc1)c1ccccc1)[C@@H](C)CC)C(=O)N[C@H](CCCCN)C(=O)N[C@@H](C)C(N)=O
B2: Isovaleric Acid-E-T-H-[Dpa]-P-I-[(D)Lys]-[bhPhe]-[Lys(Ahx_Palm)]-NH2 (peptide)
peptide: Isovaleryl-ETH[Dip]PI[dK][β3hF]K([Ahx-Palmitoyl])-NH2
SMILES: CCCCCCCCCCCCCCCC(=O)NCCCCCC(=O)NCCCC[C@H](NC(=O)C[C@H](Cc1ccccc1)NC(=O)[C@@H](CCCCN)NC(=O)[C@@H](NC(=O)[C@@H]1CCCN1C(=O)[C@@H](NC(=O)[C@H](Cc1c[nH]cn1)NC(=O)[C@@H](NC(=O)[C@H](CCC(=O)O)NC(=O)CC(C)C)[C@@H](C)O)C(c1ccccc1)c1ccccc1)[C@@H](C)CC)C(N)=O
B3: Isovaleric Acid-E-T-H-[Dpa]-P-[Lys(Ahx_Palm)]-I-[(D)Lys]-[bhPhe]-[Lys(Ac)]-NH2 (peptide)
peptide: Isovaleryl-ETH[Dip]PK([Ahx-Palmitoyl])I[dK][β3hF]K(Ac)-NH2
SMILES: CCCCCCCCCCCCCCCC(=O)NCCCCCC(=O)NCCCC[C@H](NC(=O)[C@@H]1CCCN1C(=O)[C@@H](NC(=O)[C@H](Cc1c[nH]cn1)NC(=O)[C@@H](NC(=O)[C@H](CCC(=O)O)NC(=O)CC(C)C)[C@@H](C)O)C(c1ccccc1)c1ccccc1)C(=O)N[C@H](C(=O)N[C@H](CCCCN)C(=O)N[C@H](CC(=O)N[C@@H](CCCCNC(C)=O)C(N)=O)Cc1ccccc1)[C@@H](C)CC
B4: Isovaleric Acid-E-T-H-[Dpa]-P-L-I-[(D)Lys]-[bhPhe]-[Lys(Ahx_Palm)]-[(D)Lys]-L-NH2 (peptide)
peptide: Isovaleryl-ETH[Dip]PLI[dK][β3hF]K([Ahx-Palmitoyl])[dK]L-NH2
SMILES: CCCCCCCCCCCCCCCC(=O)NCCCCCC(=O)NCCCC[C@H](NC(=O)C[C@H](Cc1ccccc1)NC(=O)[C@@H](CCCCN)NC(=O)[C@@H](NC(=O)[C@H](CC(C)C)NC(=O)[C@@H]1CCCN1C(=O)[C@@H](NC(=O)[C@H](Cc1c[nH]cn1)NC(=O)[C@@H](NC(=O)[C@H](CCC(=O)O)NC(=O)CC(C)C)[C@@H](C)O)C(c1ccccc1)c1ccccc1)[C@@H](C)CC)C(=O)N[C@H](CCCCN)C(=O)N[C@@H](CC(C)C)C(N)=O
B5: Isovaleric Acid-E-T-H-[Dpa]-P-A-[Lys(Ac)]-NH2 (peptide)
peptide: Isovaleryl-ETH[Dip]PAK(Ac)-NH2
SMILES: CC(=O)NCCCC[C@H](NC(=O)[C@H](C)NC(=O)[C@@H]1CCCN1C(=O)[C@@H](NC(=O)[C@H](Cc1c[nH]cn1)NC(=O)[C@@H](NC(=O)[C@H](CCC(=O)O)NC(=O)CC(C)C)[C@@H](C)O)C(c1ccccc1)c1ccccc1)C(N)=O
B6: Isovaleric Acid-E-T-H-[Dpa]-P-E-I-[(D)Lys]-[bhPhe]-[Lys(Ahx_Palm)]-NH2 (peptide)
peptide: Isovaleryl-ETH[Dip]PEI[dK][β3hF]K([Ahx-Palmitoyl])-NH2
SMILES: CCCCCCCCCCCCCCCC(=O)NCCCCCC(=O)NCCCC[C@H](NC(=O)C[C@H](Cc1ccccc1)NC(=O)[C@@H](CCCCN)NC(=O)[C@@H](NC(=O)[C@H](CCC(=O)O)NC(=O)[C@@H]1CCCN1C(=O)[C@@H](NC(=O)[C@H](Cc1c[nH]cn1)NC(=O)[C@@H](NC(=O)[C@H](CCC(=O)O)NC(=O)CC(C)C)[C@@H](C)O)C(c1ccccc1)c1ccccc1)[C@@H](C)CC)C(N)=O
B7: Isovaleric Acid-E-T-H-[Dpa]-P-F-I-[(D)Lys]-[bhPhe]-[Lys(Ahx_Palm)]-NH2 (peptide)
peptide: Isovaleryl-ETH[Dip]PFI[dK][β3hF]K([Ahx-Palmitoyl])-NH2
SMILES: CCCCCCCCCCCCCCCC(=O)NCCCCCC(=O)NCCCC[C@H](NC(=O)C[C@H](Cc1ccccc1)NC(=O)[C@@H](CCCCN)NC(=O)[C@@H](NC(=O)[C@H](Cc1ccccc1)NC(=O)[C@@H]1CCCN1C(=O)[C@@H](NC(=O)[C@H](Cc1c[nH]cn1)NC(=O)[C@@H](NC(=O)[C@H](CCC(=O)O)NC(=O)CC(C)C)[C@@H](C)O)C(c1ccccc1)c1ccccc1)[C@@H](C)CC)C(N)=O
B8: Isovaleric Acid-E-T-H-[Dpa]-P-[(D)Lys]-I-[(D)Lys]-[bhPhe]-[Lys(Ahx_Palm)]-NH2 (peptide)
peptide: Isovaleryl-ETH[Dip]P[dK]I[dK][β3hF]K([Ahx-Palmitoyl])-NH2
SMILES: CCCCCCCCCCCCCCCC(=O)NCCCCCC(=O)NCCCC[C@H](NC(=O)C[C@H](Cc1ccccc1)NC(=O)[C@@H](CCCCN)NC(=O)[C@@H](NC(=O)[C@@H](CCCCN)NC(=O)[C@@H]1CCCN1C(=O)[C@@H](NC(=O)[C@H](Cc1c[nH]cn1)NC(=O)[C@@H](NC(=O)[C@H](CCC(=O)O)NC(=O)CC(C)C)[C@@H](C)O)C(c1ccccc1)c1ccccc1)[C@@H](C)CC)C(N)=O
B9: Isovaleric Acid-[Tet1]-T-H-[Dpa]-P-A-I-[Lys(Ac)]-[bhPhe]-[(D)Lys]-A-NH2 (peptide)
peptide: Isovaleryl-[Ala(1H-tetrazol-5-yl)]TH[Dip]PAIK(Ac)[β3hF][dK]A-NH2
SMILES: CC[C@H](C)[C@H](NC(=O)[C@H](C)NC(=O)[C@@H]1CCCN1C(=O)[C@@H](NC(=O)[C@H](Cc1c[nH]cn1)NC(=O)[C@@H](NC(=O)[C@H](Cc1nnn[nH]1)NC(=O)CC(C)C)[C@@H](C)O)C(c1ccccc1)c1ccccc1)C(=O)N[C@@H](CCCCNC(C)=O)C(=O)N[C@H](CC(=O)N[C@H](CCCCN)C(=O)N[C@@H](C)C(N)=O)Cc1ccccc1
B10: Isovaleric Acid-E-T-H-[Dpa]-P-S-I-[(D)Lys]-[bhPhe]-[Lys(Ahx_Palm)]-NH2 (peptide)
peptide: Isovaleryl-ETH[Dip]PSI[dK][β3hF]K([Ahx-Palmitoyl])-NH2
SMILES: CCCCCCCCCCCCCCCC(=O)NCCCCCC(=O)NCCCC[C@H](NC(=O)C[C@H](Cc1ccccc1)NC(=O)[C@@H](CCCCN)NC(=O)[C@@H](NC(=O)[C@H](CO)NC(=O)[C@@H]1CCCN1C(=O)[C@@H](NC(=O)[C@H](Cc1c[nH]cn1)NC(=O)[C@@H](NC(=O)[C@H](CCC(=O)O)NC(=O)CC(C)C)[C@@H](C)O)C(c1ccccc1)c1ccccc1)[C@@H](C)CC)C(N)=O
B11: Isovaleric Acid-E-T-H-[Dpa]-P-A-I-[(D)Lys]-A-[Lys(Ahx_Palm)]-[(D)Lys]-A-NH2 (peptide)
peptide: Isovaleryl-ETH[Dip]PAI[dK]AK([Ahx-Palmitoyl])[dK]A-NH2
SMILES: CCCCCCCCCCCCCCCC(=O)NCCCCCC(=O)NCCCC[C@H](NC(=O)[C@H](C)NC(=O)[C@@H](CCCCN)NC(=O)[C@@H](NC(=O)[C@H](C)NC(=O)[C@@H]1CCCN1C(=O)[C@@H](NC(=O)[C@H](Cc1c[nH]cn1)NC(=O)[C@@H](NC(=O)[C@H](CCC(=O)O)NC(=O)CC(C)C)[C@@H](C)O)C(c1ccccc1)c1ccccc1)[C@@H](C)CC)C(=O)N[C@H](CCCCN)C(=O)N[C@@H](C)C(N)=O
B12: Isovaleric Acid-E-T-H-[Dpa]-P-A-I-[Lys(Ac)]-NH2 (peptide)
peptide: Isovaleryl-ETH[Dip]PAIK(Ac)-NH2
SMILES: CC[C@H](C)[C@H](NC(=O)[C@H](C)NC(=O)[C@@H]1CCCN1C(=O)[C@@H](NC(=O)[C@H](Cc1c[nH]cn1)NC(=O)[C@@H](NC(=O)[C@H](CCC(=O)O)NC(=O)CC(C)C)[C@@H](C)O)C(c1ccccc1)c1ccccc1)C(=O)N[C@@H](CCCCNC(C)=O)C(N)=O
B13: Isovaleric Acid-E-T-H-[Dpa]-P-A-I-[Lys(1Peg2_1Peg2_Ahx_C18_Diacid-[(D)Lys]-[bhPhe]-[(D)Lys]-A-NH2 (peptide)
peptide: Isovaleryl-ETH[Dip]PAIK([AEEA-AEEA-Ahx-C18 diacid])[dK][β3hF][dK]A-NH2
SMILES: CC[C@H](C)[C@H](NC(=O)[C@H](C)NC(=O)[C@@H]1CCCN1C(=O)[C@@H](NC(=O)[C@H](Cc1c[nH]cn1)NC(=O)[C@@H](NC(=O)[C@H](CCC(=O)O)NC(=O)CC(C)C)[C@@H](C)O)C(c1ccccc1)c1ccccc1)C(=O)N[C@@H](CCCCNC(=O)COCCOCCNC(=O)COCCOCCNC(=O)CCCCCNC(=O)CCCCCCCCCCCCCCCCC(=O)O)C(=O)N[C@H](CCCCN)C(=O)N[C@H](CC(=O)N[C@H](CCCCN)C(=O)N[C@@H](C)C(N)=O)Cc1ccccc1
B14: Isovaleric Acid-E-T-A-[Dpa]-P-A-I-[(D)Lys]-[bhPhe]-[Lys(Ahx_Palm)]-[(D)Lys]-A-NH2 (peptide)
peptide: Isovaleryl-ETA[Dip]PAI[dK][β3hF]K([Ahx-Palmitoyl])[dK]A-NH2
SMILES: CCCCCCCCCCCCCCCC(=O)NCCCCCC(=O)NCCCC[C@H](NC(=O)C[C@H](Cc1ccccc1)NC(=O)[C@@H](CCCCN)NC(=O)[C@@H](NC(=O)[C@H](C)NC(=O)[C@@H]1CCCN1C(=O)[C@@H](NC(=O)[C@H](C)NC(=O)[C@@H](NC(=O)[C@H](CCC(=O)O)NC(=O)CC(C)C)[C@@H](C)O)C(c1ccccc1)c1ccccc1)[C@@H](C)CC)C(=O)N[C@H](CCCCN)C(=O)N[C@@H](C)C(N)=O

Target: T1, human ferroportin (SLC40A1) fused in …
Assay: cell-based or functional assay

Row | FPN EC50 | Binder
1 | 492 nM | B1
2 | 22.9 nM | B2
3 | 91.9 nM | B3
4 | 593 nM | Isovaleryl-ETH[Dip]PAIK([AEEA-AEEA-Ahx-C18 diacid])-NH2 [Isovaleric Acid-E-T-H-[Dpa]-P-A-I-[Lys(1Peg2_1Peg2_Ahx_C18_Diacid)]-NH2]
5 | 4.5 nM | B4
6 | 35700 nM | B5
7 | 682 nM | B6
8 | 24.1 nM | B7
9 | 532 nM | B8
10 | 18.9 nM | B9
11 | > 3000 nM | Isovaleryl-ET[His(1-Me)][Dip]PAIK(Ac)[β3hF][dK]A-NH2 [Isovaleric Acid-E-T-[(1-Me)His]-[Dpa]-P-A-I-[Lys(Ac)]-[bhPhe]-[(D)Lys]-A-NH2]
12 | 46.3 nM | B10
13 | 8410 nM | XETHXPX (N-term Isovaleric Acid; Dpa4; Lys(Ac)6; C-term NH2) [Isovaleric Acid-E-T-H-[Dpa]-P-[Lys(Ac)]-NH2]
14 | 40.6 nM | Isovaleryl-ATH[Dip]PAI[dK][β3hF]K([Ahx-Palmitoyl])-NH2 [Isovaleric Acid-A-T-H-[Dpa]-P-A-I-[(D)Lys]-[bhPhe]-[Lys(Ahx_Palm)]-NH2]
15 | 50.6 nM | B11
16 | 1040 nM | B12
17 | 325 nM | B13
18 | 356 nM | B14
